The record followed here is patent US11807881B2, “Polypeptide, fusion polypeptide, and antibiotic against gram-negative bacteria comprising same” (priority 2020, dated 2023).

Where only a bound is given, the exact number is not on record here.

In data set [1] the test system is gram negative bacterium (Pseudomonas aeruginosa (PA01; ATCC 15692) and Acinetobacter baumannii (ATCC 19606)). The experiment in a line: NPN uptake assay (outer membrane permeabilization). Format: cell-based. As to the method:
In order to evaluate the outer membrane permeabilization activity of the gram negative bacterium of the fusion polypeptide prepared in the Example 3.2, NPN uptake assay was performed. As representative gram negative bacterium, Pseudomonas aeruginosa and Acinetobacter baumannii were used for the test.
Pseudomonas aeruginosa (PA01; ATCC 15692) or Acinetobacter baumannii (ATCC 19606) was cultured by OD600=0.3 and centrifuged at 1,000 g for 10 minutes, and then it was resuspended with a ½ volume of 5 mM HEPES (Hydroxyethyl piperazine Ethane Sulfonic acid) (pH 7.2). 40 μM NPN (1-N-phenylnaphthylamine) solution (40 μM NPN in 5 mM HEPES, pH7.2) 50 μl, the test substance (LNT101, LNT102 or LNT103) 50 μl, and strain suspension solution 100 μl (total 200 μl) were added to a microplate and reacted at 37° C. for 1 hour. Then, fluorescence was measured under the condition of excitation 350 nm and emission 420 nm with a microplate reader (Infinite M200 Pro, TECAN). As a positive control group, Cecropin A (SEQ ID NO: 8), EDTA, or polymyxin B was used, and as a negative control group, 10 μM NPN solution was used. All the experiments were performed in 3 sets. […]

Data set [2] relates to Huh-7 cell line. Format: cell-based. As to the method: In vitro toxicity of the fusion polypeptide LNT103 was evaluated by cell cytotoxicity assay (WST assay) using Huh-7 cell line and hemolysis assay using sheep blood (MB cell).
The process of progressing the cell cytotoxicity assay was as follows. The Huh07 cell culture solution was prepared and aliquoted in an amount of […] per well in a 96 well plate, and it was cultured in a CO2 incubator for 24 hours. Then, PBS as a negative control and 1% (w/v) triton X-100 as a positive control were treated, and as an experimental group, the fusion polypeptide LNT103 was treated at a concentration of 0.25, 0.5, or 1 mg/ml, and then it was left in a CO2 incubator for 24 hours and 48 hours. Then, the cell viability was measured using D-Plus™ CCK cell viability assay kit (Dongin LS), and the result was shown in FIG. 18.

B1: LNT103: fusion polypeptide [Cecropin A]-[linker (GSGSGS)]-[endolysin LNT102]; SEQ ID NO: 15 (MAS, His tag) used in the tests (protein)
chain: MASKWKLFKKIEKVGQNIRDGIIKAGPAVAVVGQATQIAKGSGSGSMGTVLKRGDRGSAVEDLQMKLNVAGYNLSADGIFGGDTEKAVRDVQAGAGLVVDGKVGPKTLYAIAKSATVPAKWEAIPFPTANKSRSAAMPTLNAVGAMTGVDSRLLATFASIESAFDYTVKAKTSSATGWFQFLDATWDDMIKAYGSKYGIPKDPTRALRKDPRANALMGAEFIKGNAAVLRPVINREPSDTDLYLAHFLGAGGAKKFLSADQKTLGEVLFPKPAKANPSIFSNKGVPRTLAEIYKLFEDKVSKHRALEHHHHHH
modifications: synthetic_Fusion Polypeptide LNT103 with MAS, His tag, and extra sequence
Consider B1, for which the “outer membrane permeabilization activity (NPN uptake, fold change over control)” value in data set [1] (2 μM, 37° C. 1 hour, compared with LNT101, LNT102, cecropin A 2 μM, polymyxin B 2 μM, EDTA 1 mM) is “higher outer membrane permeabilization activity against gram negative bacterium than the polypeptides LNT101 and LNT102 at the same concentration”. Further, in data set [1] (LNT103 0.29 μM, 0.88 μM, 2.65 μM), the “outer membrane permeabilization activity (NPN uptake, fold change over negative control)” value is “increased in a concentration-dependent manner”. For the same molecule, the “IC50 (cytotoxicity)” value in data set [2] was > 1000 mg/L.
